Source: patent US9289468B2, “Fusion protein comprising circularly permuted form of trail/Apo2L, coding gene and use thereof” (Beijing Sunbio Biotech Co. Ltd., priority 2011, dated 2016)
Substitutions are numbered along the chain they refer to.

B1: wtTRAIL: wild-type TRAIL (protein, UniProt P50591 1-281, looked up)
Tumor necrosis factor ligand …: MAMMEVQGGPSLGQTCVLIVIFTVLLQSLCVAVTYVYFTNELKQMQDKYSKSGIACFLKEDDSYWDPNDEESMNSPCWQVKWQLRQLVRKMILRTSEETISTVQEKQQNISPLVRERGPQRVAAHITGTRGRSNTLSSPNSKNEKALGRKINSWESSRSGHSFLSNLHLRNGELVIHEKGFYYIYSQTYFRFQEEIKENTKNDKQMVQYIYKYTSYPDPILLMKSARNSCWSKDAEYGLYSIYQGGIFELKENDRIFVSVTNEHLIDMDHEASFFGAFLVG
B2: NCPT-1.M8: MG+129-134+NCPT-1, SEQ ID NO: 12 (protein)
chain: MGTRGRSNTLSSPNSKNEKALGRKINSWESSRSGHSFLSNLHLRNGELVIHEKGFYYIYSQTYFRFQEEIKENTKNDKQMVQYIYKYTSYPDPILLMKSARNSCWSKDAEYGLYSIYQGGIFELKENDRIFVSVTNEHLIDMDHEASFFGAFLVGGGGGGRVAAHITGTRGRSNT
modifications: NCPT-1.M8 polypeptide sequence
B3: NCPT-1.M5: MG+His6+NCPT-1 with linker GSGGG, SEQ ID NO: 9 (protein)
chain: B2 chain with T3H, R4H, G5H, R6H, S7H, N8H, G157S
modifications: NCPT-1.M5 polypeptide sequence
B4: NCPT-1.M9: MG+Asn6+NCPT-1, SEQ ID NO: 13 (protein)
chain: B2 chain with T3N, R4N, G5N, R6N, S7N
modifications: NCPT-1.M9 polypeptide sequence
B5: NCPT-1.M4: His6+NCPT-1, SEQ ID NO: 8 (protein)
chain: HHHHHHTLSSPNSKNEKALGRKINSWESSRSGHSFLSNLHLRNGELVIHEKGFYYIYSQTYFRFQEEIKENTKNDKQMVQYIYKYTSYPDPILLMKSARNSCWSKDAEYGLYSIYQGGIFELKENDRIFVSVTNEHLIDMDHEASFFGAFLVGGGGGGRVAAHITGTRGRSNT
modifications: NCPT-1.M4 polypeptide sequence
B6: NCPT-2.M11: MG+His6+NCPT-2, SEQ ID NO: 15 (protein)
chain: MGHHHHHHTLSSPNSKNEKALGRKINSWESSRSGHSFLSNLHLRNGELVIHEKGFYYIYSQTYFRFQEEIKENTKNDKQMVQYIYKYTSYPDPILLMKSARNSCWSKDAEYGLYSIYQGGIFELKENDRIFVSVTNEHLIDMDHEASFFGAFLVGGGGGGTSEETISTVQEKQQNISPLVRERGPQRVAAHITGTRGRSNT
modifications: NCPT-2.M11 polypeptide sequence
B7: NCPT-1.M10: MG+NCPT-1+aa136-141, SEQ ID NO: 14 (protein)
chain: MGTLSSPNSKNEKALGRKINSWESSRSGHSFLSNLHLRNGELVIHEKGFYYIYSQTYFRFQEEIKENTKNDKQMVQYIYKYTSYPDPILLMKSARNSCWSKDAEYGLYSIYQGGIFELKENDRIFVSVTNEHLIDMDHEASFFGAFLVGGGGGGRVAAHITGTRGRSNTLSSPNS
modifications: NCPT-1.M10 polypeptide sequence
B8: NCPT-1.M2: MG+NCPT-1+His6, SEQ ID NO: 6 (protein)
chain: B7 chain with L170H, S171H, S172H, P173H, N174H, S175H
modifications: NCPT-1.M2 polypeptide sequence
B9: NCPT-1.M3: MG+His3+NCPT-1, SEQ ID NO: 7 (protein)
chain: MGHHHTLSSPNSKNEKALGRKINSWESSRSGHSFLSNLHLRNGELVIHEKGFYYIYSQTYFRFQEEIKENTKNDKQMVQYIYKYTSYPDPILLMKSARNSCWSKDAEYGLYSIYQGGIFELKENDRIFVSVTNEHLIDMDHEASFFGAFLVGGGGGGRVAAHITGTRGRSNT
modifications: NCPT-1.M3 polypeptide sequence
B10: NCPT-1.M6: MG+His6+NCPT-1 with linker GGSGGGG, SEQ ID NO: 10 (protein)
chain: MGHHHHHHTLSSPNSKNEKALGRKINSWESSRSGHSFLSNLHLRNGELVIHEKGFYYIYSQTYFRFQEEIKENTKNDKQMVQYIYKYTSYPDPILLMKSARNSCWSKDAEYGLYSIYQGGIFELKENDRIFVSVTNEHLIDMDHEASFFGAFLVGGGSGGGGRVAAHITGTRGRSNT
modifications: NCPT-1.M6 polypeptide sequence
B11: NCPT-3.M12: MG+His6+NCPT-3, SEQ ID NO: 16 (protein)
chain: MGHHHHHHTLSSPNSKNEKALGRKINSWESSRSGHSFLSNLHLRNGELVIHEKGFYYIYSQTYFRFQEEIKENTKNDKQMVQYIYKYTSYPDPILLMKSARNSCWSKDAEYGLYSIYQGGIFELKENDRIFVSVTNEHLIDMDHEASFFGAFLVGGGGGGVRERGPQRVAAHITGTRGRSNT
modifications: NCPT-3.M12 polypeptide sequence
B12: NCPT-1.M7: MG+His9+NCPT-1, SEQ ID NO: 11 (protein)
chain: MGHHHHHHHHHTLSSPNSKNEKALGRKINSWESSRSGHSFLSNLHLRNGELVIHEKGFYYIYSQTYFRFQEEIKENTKNDKQMVQYIYKYTSYPDPILLMKSARNSCWSKDAEYGLYSIYQGGIFELKENDRIFVSVTNEHLIDMDHEASFFGAFLVGGGGGGRVAAHITGTRGRSNT
modifications: NCPT-1.M7 polypeptide sequence

System: human COLO 205 xenograft tumor
Assay: Inhibitory activity on human colon cancer xenograft tumors
Format: in vivo, Balb/c nu mice
Details: 15 mg/kg i.p. once a day for 10 days
Experimental: 4 to 5 weeks old Balb/c nu mice ♂ (Institute of Experimental Animals, Chinese Academy of Medical Sciences) were subcutaneously inoculated with COLO 205 human colon tumor tissue pieces. When the tumor grew to the volume of 120 mm3, the tumor-bearing mice were divided into 4 groups (n=7/group), which were intraperitoneally injected with normal saline (negative control group), NCPT-1.M1 5 mg/kg, NCPT-1.M1 15 mg/kg and wtTRAIL 15 mg/kg once a day for 10 consecutive days. […] During the experiment, the tumor length diameter (a) and wide diameter (b) were measured every two days with a vernier caliper, and tumor volume (TV) was calculated according to the following formula: TV=½×a×b^2; From the above, the relative tumor volume (RTV) was calculated according to following formula: RTV=Vt/V0. Wherein V0 is the tumor volume measured on the day of the administration, but before administration (i.e., d0), and Vt is the tumor volume measured every time. The relative tumor proliferation rate T/C (%) is used as an evaluation index. Evaluation criteria: T/C (%)>40% means no effect; T/C (%)≦40% and the statistical significance of P<0.05 means being effective.
T/C %=RTVT/RTVC*100%. (RTVT: RTV of the treatment group; […]: RTV of the negative control group).

Molecule | relative tumor volume RTV | tumor proliferation rate T/C(%)
B1 | 1.58 | 33.98

Same assay, conditions: 15 mg/kg i.p. once a day for 10 days; beginning

Molecule | Tumor volume TV beginning [mm^3]
B1 | 127 ± 38.3

Same assay, conditions: 15 mg/kg i.p. once a day for 10 days; ending

Molecule | Tumor volume TV ending [mm^3]
B1 | 212

Same assay, conditions: 15 mg/kg, COLO 205 xenograft, P<0.05

Molecule | efficacy compared with NCPT-1.M1
B1 | significantly weaker than that of NCPT-1.M1 with the same dosage

Same assay, conditions: both dosage groups of NCPT-1.M1 (5, 15 mg/kg), wtTRAIL 15 mg/kg

Molecule | evaluation of efficacy (T/C ≦40% and P<0.05 means being effective)
B1 | effective

System: human multiple myeloma cell line U266
Assay: Combination with melphalan, cell survival (ATPlite)
Format: cell-based
Details: melphalan 12.5˜50 μg/ml, 48 h, U266B1
Experimental: FIG. 9. […] U266 cells are insensitive to CPT. At the concentration of 1 μg/ml, NCPT-1.M1 alone has a mild killing effect on U266 (<20%), but with the presence of melphalan (12.5˜50 μg/ml), both of them can cause enhanced killing effect. The cell viability was assayed with ATPlite luminescent system (PerkinElmer), the data as shown in this figure are all represented as the mean±standard deviation, n=4, #P<0.05, ##P<0.01 vs. melphalan group; *P<0.05 vs. NCPT-1.M1 group.

Molecule | cell survival rate, melphalan alone
N[C@@H](Cc1ccc(N(CCCl)CCCl)cc1)C(=O)O [melphalan, reference compound] | 11.9˜100.9%

System: NCI-H460 cells
Assay: Assay of killing activity on lung cancer cell line (crystal violet, IC50)
Format: cell-based, human
Details: 20-24 hours, crystal violet
Experimental: The NCI-H460 cells (ATCC) were cultured in flasks until logarithmic growth phase, digested with 0.25% trypsin (Amresco), collected by centrifugation (1000 rpm, 5 min), resuspended in RPMI1640 medium (Invitrogen) containing 3% fetal bovine serum (FBS), counted and adjusted to 1.5×10^5/ml cell suspension, added into 96-well culture plates (Nunc) at 100 μl/well, and incubated at 37° C. in 5% CO2 incubator overnight. The sample to be tested was diluted to a certain concentration with 1640 medium containing 3% FBS, and further diluted at 4-fold dilutions (8 dilutions). The supernatant in the culture plate was discarded, and serial dilutions of the sample to be tested was added into the plate at 100 μl/well with a negative control and blank control set aside, incubated at 37° C. under 5% CO2 for 20-24 hours. Following examination under microscope, the supernatant was discarded, each well was added 50 μl 0.05% crystal violet solution (50 mg crystal violet was dissolved in 20 ml anhydrous ethanol, and water was added to the volume of 100 ml, then stored at room temperature) and stained for 3-5 minutes. The crystal violet was carefully washed with flowing water, the remaining water was removed by spin-drying, a destaining solution (50 ml distilled water, 50 ml anhydrous ethanol, and 0.1 ml glacial acetic acid were thoroughly mixed and stored at room temperature) was added at 100 μl/well, then the reading at OD570 was measured on a microplate reader (Bio-Rad 680) (reference wavelength of 630 nm). The inhibitory concentration 50 (IC50) of each sample was calculated by a four-parameter Logistic fitting using Sigmaplot10.0 software. The IC50 for CPT and each mutant of NCPT-1, NCPT-2, and NCPT-3 were calculated, and the activity change of each mutant was represented as a ratio of the IC50 of each mutant to that of CPT (Table 1).

Molecule | Ratio of IC50 of mutants to IC50 of CPT (H460 cells)
B2 | 1.5
B3 | 0.15
B4 | 3.0
B5 | 0.12
B6 | 0.47
B7 | 1.2
B8 | 0.1
B9 | 0.4
B10 | 0.15
B11 | 0.38
B12 | 0.3

Same assay, conditions: based on IC50

Molecule | killing activity compared to that of CPT
B2 | significantly decreased compared to that of CPT
B3 | significantly higher than that of CPT
B4 | significantly decreased compared to that of CPT
B5 | significantly higher than that of CPT
B6 | significantly higher than that of CPT
B7 | slightly decreased compared to that of CPT
B8 | significantly higher than that of CPT
B9 | significantly higher than that of CPT
B10 | significantly higher than that of CPT
B11 | significantly higher than that of CPT
B12 | significantly higher than that of CPT
